The supplement of paper PMC9732359
± gives the uncertainty stated by the source.

Assay: protein stability index of a GFP-peptide fusion (yeast GPS) (PSI 1-4); higher = more stable; sorted into four equal gates, so the index is relative within each strain
How it was run: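 Yeast carrying a pooled library were grown to mid-log phase in leucine-free medium. Each library plasmid expresses Cherry and has a tiled 17-residue yeast protein peptide fused downstream of GFP. Cells were sorted into four equal gates by GFP/Cherry ratio, and plasmids from each gate were PCR-amplified, Illumina-sequenced and assigned to strains by barcode. Summing, across gates, the read frequency times the gate number gave each peptide's protein stability index.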

Sequence | protein stability index (doa10∆) | protein stability index (pdr5∆) | protein stability index (san1∆) | protein stability index (ubr1∆)
KKWPQFYAAVQKNYADP [SIN4] | 1.5 ± 0.07 | 2.09 ± 0.084 | 2.77 ± 0.13 | 2.18 ± 0.075
KLDASKKQQAALTNELN [YIL149C/MLP2] | 2.79 ± 0.069 | 2.99 ± 0.075 | 2.68 ± 0.08 | 2.17 ± 0.062
KLDSKKILPTDIQLKNL [SRP68] | 2.74 ± 0.1 | 2.78 ± 0.078 | 2.79 ± 0.061 | 2.69 ± 0.059
KLIAAAEDGSRSTKDMI [SNF6] | 3.54 ± 0.15 | 3.69 ± 0.23 | 3.44 ± 0.14 | 3.54 ± 0.087
KLILHAIHIFESYYNWK [YML103C/NUP188] | 1.57 ± 0.082 | 1.45 ± 0.07 | 1.58 ± 0.081 | 1.82 ± 0.056
KLKGLMKLNILDERFAS [IRR1] | 2.29 ± 0.13 | 2.75 ± 0.083 | 2.4 ± 0.16 | 2.35 ± 0.064
KLKLLRMERIKDHLLLE [RPT2] | 2.27 ± 0.079 | 2.05 ± 0.064 | 2.12 ± 0.092 | 1.86 ± 0.054
KLKQQSSTDIPSYTHVL [RRI1] | 2.29 ± 0.034 | 2.48 ± 0.04 | 2.52 ± 0.045 | 2.49 ± 0.035
KLKRNSDRREHDEKLSD [LIN1] | 3.51 ± 0.23 | 2.49 ± 0.16 | 3.22 ± 0.11 | 2.96 ± 0.13
KLLKQPKFDVGALMALH [RPS1A] | 1.9 ± 0.056 | 2.16 ± 0.083 | 1.9 ± 0.084 | 1.9 ± 0.069
KLLKSLLLNYLELIGVL [MED7] | 1.86 ± 0.052 | 1.56 ± 0.052 | 1.14 ± 0.098 | 1.33 ± 0.058
KLLQLFLTPMDSIDLAP [YML103C/NUP188] | 1.9 ± 0.071 | 1.54 ± 0.062 | 1.76 ± 0.092 | 1.36 ± 0.038
KLNTLSEILSFDPVYTT [YML103C/NUP188] | 2.54 ± 0.061 | 2.77 ± 0.067 | 2.85 ± 0.073 | 2.77 ± 0.078
KLNVVGWFHSHPGYDCW [RRI1] | 2.59 ± 0.095 | 2.38 ± 0.099 | 2.61 ± 0.13 | 2.38 ± 0.064
KLRGDLREAPADYWTHA [SNF6] | – | 3 ± 0.27 | – | 2.99 ± 0.12
KMENFEFLPLSLHILMI [SRB8] | 2.79 ± 0.077 | 2.8 ± 0.054 | 1.91 ± 0.076 | 2.85 ± 0.06
KMKIQETISKLNEYKRE [SMC2] | 1.3 ± 0.065 | 1.48 ± 0.051 | 2.35 ± 0.084 | 1.93 ± 0.036
KMVAKGLNDLVEQYKFR [BRR2] | 3.35 ± 0.12 | 3.17 ± 0.12 | 3.03 ± 0.11 | 3.14 ± 0.096
KMVGLRGFNNQIMQLKK [SNF2] | 3.35 ± 0.063 | 3.21 ± 0.073 | 3.04 ± 0.068 | 3.35 ± 0.041
KNEKLILEESLNAIILK [SMC3] | 2.74 ± 0.075 | 2.64 ± 0.087 | 2.18 ± 0.17 | 2.65 ± 0.064
KNEPDYSKAKYPDLQPF [CDC53] | 2.35 ± 0.086 | 2.58 ± 0.089 | 2.06 ± 0.13 | 2.5 ± 0.085
KNGAQDLVLQILEDTAT [RRI2] | 3.37 ± 0.08 | 3.3 ± 0.095 | 3.33 ± 0.054 | 3.18 ± 0.072
KNGTIVKKAVTVHSKSR [RPL19A] | 2.44 ± 0.068 | 2.8 ± 0.068 | 2.45 ± 0.079 | 1.96 ± 0.068
KNINIGKHSQEQNSSSA [SIR4] | 3 ± 0.072 | 3.13 ± 0.082 | 3.29 ± 0.1 | 3.25 ± 0.057
KNKDSLVSNPHEIYGSM [SRB4] | 3.04 ± 0.084 | 3.09 ± 0.09 | 2.96 ± 0.07 | 3.26 ± 0.14
KNMPVIYNNIVSNIEGI [RGR1] | 2.43 ± 0.055 | 2.69 ± 0.066 | 2.5 ± 0.05 | 2.56 ± 0.041
